Measured values from PMC2962900, “Kinetics of Methylation by EcoP1I DNA Methyltransferase” (Enzyme Research, 2010).

What was measured:
purified protein = substrate: C[S+](CC[C@H](N)C(=O)O)C[C@H]1O[C@@H](n2cnc3c(N)ncnc32)[C@H](O)[C@@H]1O; assay: purified protein; settings: Mg2+; DNA 1 μM (which DNA not stated); enzyme 400 nM; AdoMet 50 nM-2 μM; 30 min; labelled compound
[1] = target: the molecule itself; assay: SEC; Superose 6 HR 10/30, buffer B (10 mM Tris-HCl pH 7.4, 100 mM NaCl, 0.1 mM EDTA, 10% glycerol, 7 mM beta-mercaptoethanol), 0.2 mL/min; 3-15 uM M.EcoP1I loaded; column calibrated with marker proteins

Protein	Km (purified protein)	stoichiometry N [1]
EcoP1I DNA methyltransferase (M.EcoP1I) (Escherichia phage P1) (protein) MKKETIFSEVETANSKQLAVLKANFPQCFDKNGAFIQEKLLEIIRASEVELSKESYSLNWLGKSYARLLANLPPKTLLAEDKTHNQQEENKNSQNLLIKGDNLEVLKHMVNAYAEKVNMIYIDPPYNTGKDGFVYNDDRKFTPEQLSELAGIELDEANRILEFTTKGSSSHSAWLTFIYPRLYIARELLKEDGVIFISIDDNEDKQLGLLCDEVFGQGNFVAKLPTIMNLKGNHDNFGFSDTHEYIYVYAKNKDVCSLGQFDIDESEVEKEWDEDEYGLFKRADTLKRTGQDASRKSRPKGWFPVFINSENKVYVTDDDKPLNEDDYVLYPVSPTGEELSWSWGKKKINDEFYNLIVIDIKDGKNIYKKQRPALGELPTKKPKSIWYKPEYSTSTATTELKNLLGAKLFEGPKPVPLITDLVKIGTKKDSLVLDFFAGSGTTAEAVAYLNEKDSGCRNFICIQKDEVINKTKNAYSLGYRSIFEITKKRIQEVFKKSTTTSDNAAKIGFKVIHTIDDFRAKVESELTLTNHTFFDDAVLTPEQYDALLTTWCVYDGSLLTTPIEDVDLSGYTAHFCNGRLYLIAPNFTSEALKALLQKLDSDEDFAPNKVVFYGCNFESAKQRELNEALKSYANKKSIELDLVVRN	0.5 µM	–
EcoP1I DNA methyltransferase (M.EcoP1I) (enzyme, bacteriophage P1, UniProt P08763 1-646, looked up, EcoP1I DNA methyltransferase, product of the mod gene of the EcoP1I Type III restriction-modification system of bacteriophage (prophage) P1; 1948 bp gene amplified with primers from the 5' and 3' ends of the open reading frame, cloned in the BamHI site of pET15b (construct pSN2); calculated mass ~75 kDa; No removal of the His6 tag is described. pET15b adds linker residues between the tag and the …) MKKETIFSEVETANSKQLAVLKANFPQCFDKNGAFIQEKLLEIIRASEVELSKESYSLNWLGKSYARLLANLPPKTLLAEDKTHNQQEENKNSQNLLIKGDNLEVLKHMVNAYAEKVNMIYIDPPYNTGKDGFVYNDDRKFTPEQLSELAGIELDEANRILEFTTKGSSSHSAWLTFIYPRLYIARELLKEDGVIFISIDDNEDKQLGLLCDEVFGQGNFVAKLPTIMNLKGNHDNFGFSDTHEYIYVYAKNKDVCSLGQFDIDESEVEKEWDEDEYGLFKRADTLKRTGQDASRKSRPKGWFPVFINSENKVYVTDDDKPLNEDDYVLYPVSPTGEELSWSWGKKKINDEFYNLIVIDIKDGKNIYKKQRPALGELPTKKPKSIWYKPEYSTSTATTELKNLLGAKLFEGPKPVPLITDLVKIGTKKDSLVLDFFAGSGTTAEAVAYLNEKDSGCRNFICIQKDEVINKTKNAYSLGYRSIFEITKKRIQEVFKKSTTTSDNAAKIGFKVIHTIDDFRAKVESELTLTNHTFFDDAVLTPEQYDALLTTWCVYDGSLLTTPIEDVDLSGYTAHFCNGRLYLIAPNFTSEALKALLQKLDSDEDFAPNKVVFYGCNFESAKQRELNEALKSYANKKSIELDLVVRN	–	2
